For two molecules, decay half-life of the convertase, Kd and stoichiometry N results are on record in PMC2881335.

The target in experiment [1] is complement C3b, site-specifically biotinylated at the thioester moiety (UniProt P01024). The experiment is described as follows: SPR.
The target in the next experiment is complement C3b (UniProt P01024). The experiment is described as follows: ITC. For orientation: ITC needs no label: the signal is the heat of the interaction.
Experiment [2] concerns the target complement C3b, site-specifically biotinylated at the thioester moiety (UniProt P01024). The experiment is described as follows: SPR. This is another data set of the same source.

What is called Kd is a measure of binding affinity in units of concentration. A low value points to tighter binding. By stoichiometry N is commonly meant the number of molecules, sites or subunits per partner or assembly.

“And” between values parts separate entries of the source, which are not always exact repeats. Equal entries are not always repeated.

The molecule “Bb fragment of factor B (from UniProt P00751 260-764) (domain or fragment)” gave a decay half-life of the convertase in experiment [1] of 5 to 6 min.

B1: staphylococcal complement inhibitor SCIN-A (natural protein)
chain: STSLPTSNEYQNEKLANELKSLLDELNVNELATGSLNTYYKRTIKISGQKAMYALKSKDFKKMSEAKYQLQKIYNEIDEALKSKY
On to B1, for which the Kd in the experiment with complement C3b was 264 nM; in experiment [2] it was 169 nM and 177 nM. Also, the stoichiometry N with complement C3b came out at 0.75.
